B1: RSPH3 (parent)
chain: VDVQTELYLEEIADRIIEVDMECQ
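Also: lentivirally expressed fusions sorted by FACS into six bins by GFP to DsRed ratio, PSI derived from sequencing read proportions per bin multiplied by bin number.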

Variants of: B1
Test: protein stability index of a GFP-peptide fusion (GPS, HEK-293T) (PSI 1-6); higher = more stable
Conditions: c terminus: a fixed tail appended
Variant VDVQTELYLEEIADRIIEVDMEWQ [C23W] has a protein stability index of 1.88. Variant VDVQTELYLEEIADRIIEVDMEKQ [C23K] has a protein stability index of 4.46. Work on VDVQTELYLEEIADRIIEVDMEEQ [C23E] yielded a protein stability index of 4.22. With VDVQTELYLEEIADRIIEVDMEQQ [C23Q] the protein stability index was 4.31. VDVQTELYLEEIADRIIEVDMEIQ [C23I] showed a protein stability index of 2.23. In the case of VDVQTELYLEEIADRIIEVDMESQ [C23S], the protein stability index is reported as 3.85. Variant VDVQTELYLEEIADRIIEVDMELQ [C23L] has a protein stability index of 3.52. VDVQTELYLEEIADRIIEVDMEVQ [C23V] showed a protein stability index of 5.09. For VDVQTELYLEEIADRIIEVDMEGQ [C23G], the protein stability index was 3.72. For VDVQTELYLEEIADRIIEVDMEFQ [C23F], the protein stability index was 2.07. VDVQTELYLEEIADRIIEVDMEAQ [C23A] gave a protein stability index of 3.46. In the case of VDVQTELYLEEIADRIIEVDMEYQ [C23Y], the protein stability index is reported as 2.71. VDVQTELYLEEIADRIIEVDMEHQ [C23H] gave a protein stability index of 4.03. VDVQTELYLEEIADRIIEVDMETQ [C23T] showed a protein stability index of 3.68. VDVQTELYLEEIADRIIEVDMEDQ [C23D] gave a protein stability index of 4.4. Variant VDVQTELYLEEIADRIIEVDMERQ [C23R] has a protein stability index of 3.46. Variant VDVQTELYLEEIADRIIEVDMENQ [C23N] has a protein stability index of 3.87. For VDVQTELYLEEIADRIIEVDMEPQ [C23P], the protein stability index was 4.06. VDVQTELYLEEIADRIIEVDMEMQ [C23M] showed a protein stability index of 2.34. For VDVQTELYLEEIADRIIEVDEECQ [M21E], the protein stability index was 3.85. VDVQTELYLEEIADRIIEVDPECQ [M21P] showed a protein stability index of 4.45. VDVQTELYLEEIADRIIEVDAECQ [M21A] gave a protein stability index of 3.23. With VDVQTELYLEEIADRIIEVDHECQ [M21H] the protein stability index was 3.59. Work on VDVQTELYLEEIADRIIEVDKECQ [M21K] yielded a protein stability index of 2.27. Variant VDVQTELYLEEIADRIIEVDDECQ [M21D] has a protein stability index of 4.54. VDVQTELYLEEIADRIIEVDSECQ [M21S] gave a protein stability index of 3.85. VDVQTELYLEEIADRIIEVDTECQ [M21T] showed a protein stability index of 3.43. VDVQTELYLEEIADRIIEVDLECQ [M21L] gave a protein stability index of 1.66. For VDVQTELYLEEIADRIIEVDIECQ [M21I], the protein stability index was 1.91. For VDVQTELYLEEIADRIIEVDGECQ [M21G], the protein stability index was 4.38. Work on VDVQTELYLEEIADRIIEVDNECQ [M21N] yielded a protein stability index of 2.99. In the case of VDVQTELYLEEIADRIIEVDWECQ [M21W], the protein stability index is reported as 1.76. For VDVQTELYLEEIADRIIEVDFECQ [M21F], the protein stability index was 1.47. With VDVQTELYLEEIADRIIEVDVECQ [M21V] the protein stability index was 1.99. With VDVQTELYLEEIADRIIEVDCECQ [M21C] the protein stability index was 2.38. VDVQTELYLEEIADRIIEVDRECQ [M21R] showed a protein stability index of 3.8. With VDVQTELYLEEIADRIIEVDYECQ [M21Y] the protein stability index was 1.94. With VDVQTELYLEEIADRIIEVDQECQ [M21Q] the protein stability index was 2.49. In the case of VDVQTELYLEEIADRIIEVDMVCQ [E22V], the protein stability index is reported as 1.57. For VDVQTELYLEEIADRIIEVDMRCQ [E22R], the protein stability index was 2.03. VDVQTELYLEEIADRIIEVDMTCQ [E22T] gave a protein stability index of 2.17. Variant VDVQTELYLEEIADRIIEVDMDCQ [E22D] has a protein stability index of 2.77. Work on VDVQTELYLEEIADRIIEVDMFCQ [E22F] yielded a protein stability index of 1.9. With VDVQTELYLEEIADRIIEVDMNCQ [E22N] the protein stability index was 2.86. VDVQTELYLEEIADRIIEVDMHCQ [E22H] gave a protein stability index of 2.06. For VDVQTELYLEEIADRIIEVDMLCQ [E22L], the protein stability index was 2.53. Work on VDVQTELYLEEIADRIIEVDMKCQ [E22K] yielded a protein stability index of 2.27. VDVQTELYLEEIADRIIEVDMYCQ [E22Y] showed a protein stability index of 2.82. Variant VDVQTELYLEEIADRIIEVDMICQ [E22I] has a protein stability index of 2.81. VDVQTELYLEEIADRIIEVDMGCQ [E22G] showed a protein stability index of 3.05. VDVQTELYLEEIADRIIEVDMSCQ [E22S] gave a protein stability index of 2.22. In the case of VDVQTELYLEEIADRIIEVDMPCQ [E22P], the protein stability index is reported as 2.88. VDVQTELYLEEIADRIIEVDMCCQ [E22C] showed a protein stability index of 1.89. VDVQTELYLEEIADRIIEVDMMCQ [E22M] gave a protein stability index of 2.83. For VDVQTELYLEEIADRIIEVDMQCQ [E22Q], the protein stability index was 2.01. With VDVQTELYLEEIADRIIEVDMACQ [E22A] the protein stability index was 1.99. Variant VDVQTELYLEEIADRIIEVDMECK [Q24K] has a protein stability index of 2.12. VDVQTELYLEEIADRIIEVDMECY [Q24Y] gave a protein stability index of 2.69. VDVQTELYLEEIADRIIEVDMECP [Q24P] showed a protein stability index of 3.33. Variant VDVQTELYLEEIADRIIEVDMECF [Q24F] has a protein stability index of 1.14. Variant VDVQTELYLEEIADRIIEVDMECG [Q24G] has a protein stability index of 2.79. VDVQTELYLEEIADRIIEVDMECH [Q24H] gave a protein stability index of 2.52. With VDVQTELYLEEIADRIIEVDMECD [Q24D] the protein stability index was 2.82. Work on VDVQTELYLEEIADRIIEVDMECA [Q24A] yielded a protein stability index of 1.95. In the case of VDVQTELYLEEIADRIIEVDMECM [Q24M], the protein stability index is reported as 1.59. With VDVQTELYLEEIADRIIEVDMECS [Q24S] the protein stability index was 2.72. VDVQTELYLEEIADRIIEVDMECN [Q24N] showed a protein stability index of 2.05. In the case of VDVQTELYLEEIADRIIEVDMECT [Q24T], the protein stability index is reported as 3.69. VDVQTELYLEEIADRIIEVDMECE [Q24E] gave a protein stability index of 2.31. Variant VDVQTELYLEEIADRIIEVDMECR [Q24R] has a protein stability index of 2.52. For VDVQTELYLEEIADRIIEVDMECI [Q24I], the protein stability index was 2.32. With VDVQTELYLEEIADRIIEVDMECV [Q24V] the protein stability index was 1.84. VDVQTELYLEEIADRIIEVDMECL [Q24L] gave a protein stability index of 1.33. For VDVQTELYLEEIADRIIEVDMECW [Q24W], the protein stability index was 1.5. Work on VDVQTELYLEEIADRIIEVDMECC [Q24C] yielded a protein stability index of 2.32. Variant VDVQTELYLEEIADRIIEVKMECQ [D20K] has a protein stability index of 2.24. Variant VDVQTELYLEEIADRIIEVGMECQ [D20G] has a protein stability index of 1.85. With VDVQTELYLEEIADRIIEVQMECQ [D20Q] the protein stability index was 3.34. For VDVQTELYLEEIADRIIEVFMECQ [D20F], the protein stability index was 3.1. Variant VDVQTELYLEEIADRIIEVAMECQ [D20A] has a protein stability index of 2.54. VDVQTELYLEEIADRIIEVRMECQ [D20R] gave a protein stability index of 1.15. For VDVQTELYLEEIADRIIEVPMECQ [D20P], the protein stability index was 3.46. In the case of VDVQTELYLEEIADRIIEVVMECQ [D20V], the protein stability index is reported as 2.51. For VDVQTELYLEEIADRIIEVNMECQ [D20N], the protein stability index was 1.82. Variant VDVQTELYLEEIADRIIEVHMECQ [D20H] has a protein stability index of 2.46. Work on VDVQTELYLEEIADRIIEVYMECQ [D20Y] yielded a protein stability index of 4.28. VDVQTELYLEEIADRIIEVTMECQ [D20T] gave a protein stability index of 3.29. VDVQTELYLEEIADRIIEVIMECQ [D20I] showed a protein stability index of 3.01. VDVQTELYLEEIADRIIEVLMECQ [D20L] showed a protein stability index of 4.62. Work on VDVQTELYLEEIADRIIEVSMECQ [D20S] yielded a protein stability index of 1.65. Variant VDVQTELYLEEIADRIIEVEMECQ [D20E] has a protein stability index of 1.71. VDVQTELYLEEIADRIIETDMECQ [V19T] gave a protein stability index of 3.95. VDVQTELYLEEIADRIIEYDMECQ [V19Y] gave a protein stability index of 2.58. For VDVQTELYLEEIADRIIEWDMECQ [V19W], the protein stability index was 2.28.

— the supplement of paper PMC10567573
